From the nanobody polyreactivity screen of Harvey et al. (2022)

Assay: yeast display, Sf9 membrane polyspecificity reagent, FACS + sequencing; frameworks hold sequencing errors
Method in brief: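 Genes from sorted yeast were amplified by colony PCR, read by MiSeq 2 × 250 sequencing and filtered on CDR length. These cells carried a synthetic nanobody library in Saccharomyces cerevisiae BJ5465 and were sorted by FACS into low and high (top ~1%) gates on anti-HA and streptavidin fluorescence. Polyreactivity is labelled according to the gate of origin.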

| Sequence | polyreactivity (PSR sort gate) |
| --- | --- |
| QVQLVESGGGLVQAGGSLRLSCAASGSTFDVYAMGWYRQAPGKERELVAAIDVRDSTTYYADSVKGRFTISRDNAKNTVYLQMNSLKPEDTAVYYCAAEADIEYGDDDYWGQGTQVTVSS | high polyreactivity |
| QVQLVESGGGLVQAGGSLRLSCAASGITLGTYVMGWYRQAPGKERELVAAISSGGSTYYADSVKGRFTISRDNAKNTVYLQMNSLKPEDTAVYYCAAQYYPYYDSRVSYDYWGQGTQVTVSS | low polyreactivity |
| QVQLVESGGGLVQAGGSLRISCAASGGIIQYYDMGWYRQAPGKEREFVATISQRGGITYYADSVKGRFTISRDNAKNTVYLQMNSLKPEDTAVYYCAARSYYAVYYWGQGTQVTVSS | high polyreactivity |
| QVQLVESGGGLVQAGGSLRLSCAASGSTYIANPMGWYRQAPGKEREFLATISRRGGSTYYADSVKGRFTISRDNAKNTVYLQMNSLKPEDTAVYYCAARPLTYIRFRYYYWGQGTQVTVSS | high polyreactivity |
| QVQLVESGGGLVLAGGSLRLSCAASGRIFYQNAMGWYRQAPGKERELVAGITRGGSTYYADSVKGRFTISRDNAKNTVYLQMNSLKPEETAVYYCAVAFWRTKWYDYWGQGTQVTVSS | low polyreactivity |
| QVQLVESGGGLVQAGGSLRLSCAATGSIFYNYAMGWYRQAPGKERELVAAINRSGGITFYADSVKGRFTISRDNAKNTVYLQMNSLKPEDTAVYYCAAEEVPYDRDMDYWGQGTQVTVSS | low polyreactivity |
| QLQLQEGGGGLVQAGGSLRLSCAASGYISYGDVMGSYRQAPGEERELVASIGLDATTNYADSVKGRFNISRDNAKITVYLQMNSLKPEDTAVYYCAAVVGSGVLCGYWGQGTQMTVSS | high polyreactivity |
| QVQLVESGGGLVQAGGSLRLTCAASVSTIAGNAMGWYRQAPGKERELVAVITRVGSTNYADSVKGRFTISRDNAKNTVYLQMKSLKPEDTEVYYCARYGFLLDYWRGGYYWGQGTQVTVSS | high polyreactivity |
| QVQLVESGGVLVQAGGSPRLSCAASGRTYAYYPMGWYRQAPGKERELVARITRGGSTYYADSVKGRFTISRDNAKNSVYLQMYSLIPDDTAVYYCNRYQWQHYTSVYLRTGSDYWGQGTQVTVSS | high polyreactivity |
| QVQLVESGGCIVQAGGSLRLSCAASGRIFKLYAMGWYRQAPGKERELVAAITTSGGSTYYADSVKGRFTISRDNAKNTVSLEMNSLIPEDTAGYYCNARAVRYPFTGNYWGQGTQVTVSS | high polyreactivity |
| QVQLVESGGGLVQAGGSLRLSCAASGFIFYRNAMGWYRPAPGKERELVAAINRGGSTYYADSVKGRFTISRDNAKNTVYLQMNSLKPEDTAVYYCAAYHLRPSRYDYWGQGTQVTVSS | high polyreactivity |
| QDQLVESGGGLVQAGGSLRLSCAASGRTFYCYAMGGYRQAPGKDRELVAAISSGDITSYADSVKGRFTISRDNAKNTVYLQMNSVKPEDTAVYYCAAEVVAWSLYEDFKTYDYWGQGTQVTVSS | low polyreactivity |
| QVQLVESGGGLVQAGGSLRLSCAASGITFGIYVMGWYRPAPGKEWELVATISRSDDNTYYADSVKGRFTISRDNAKNTVYLQMNSLKPEDTAVYYCAAYWYDLYWDYYTFDYWGQGTQVTVSS | low polyreactivity |
| QVQLVESGGGLVQEGGSLRLSCAASGFIFLYYAMGWYRQAPGKERELVASINRVGSTYYADSVKGRFTISRDNAKKTVYLQMNSLKPEVTAVYYCNARWIGRLTPYRRATYNYWGQVTQVTVSS | high polyreactivity |
| QVQLVESGGGLVQAGGSLRLSCAASGRTFYANAMGWYRQAPGKERELVAAISSNGGSTYYADSVKGRFTISRDNAKNTVYLQMNSLKPEDTAVYYCAVVSRYKAWRKYDYWGQGTQVTVSS | high polyreactivity |
| QVQLEESGGGLVQAGGSLRLSCAASGRTFYGKAMGWYRNAPGKEWEFVASISYSGTTTYYADSVKGRFTISRDNAKNTVYLKMNSLKPEDTAVYYCAVESYPTDYGPRFGSWGQGTQVTVSS | low polyreactivity |
| QVQLVESGGGLVQAGGSLRLSCAASGRTFYSYAMGWYRQAPGKERELVASISSSGASTYYADSVKGRFTISRDNAKNTVYLQMNSLKPEDTAVYYCNAVWRTSFITIYGFDYWGQGTQVTVSS | high polyreactivity |
| QDQIVDSGGGLVQAGVSLRLSCAASGFTFGINTLGWYRQAPGKERELVAGISRTSSTYADSVKGRFTISRDNAKNTVYLQMNSLNAEDTAVYYCAAEYFQTRFGSWRKRYVSWGQGTQVTVSS | high polyreactivity |
| QVQHVESVRGLVQAGGSLRLSCDASGIIFYSYAMGWYRQAPGKERELVARISTRGGSTYYADSVKGRFTISRDNAKNTVYLQMNSLKPEDTAVYYCAARYSRYIRFPYDYWGQGTQVTVSS | high polyreactivity |
| QVQLVESGGGLVQAGGSLRLSCAASGSTFRYYAMGWYRQAPGKERELVAAISYGGGITNYADSVKGRLTISRDNAKNTVYLQMNSLKPEDTAVYYCAAYDRITRYDYWGQGTQVTVSS | high polyreactivity |
| QVQLVDSGGGLVQAGGSLRLSCAASGRIFYYYAMGWYRQAPGKERELVAAISWNGGTTYYAESVKGRFTISRDNAKNTVYLQINSLKPEDTAVYYCNAVLYRGPPGSRMDYWGQGTQVTVSS | high polyreactivity |
| QVQLVESGGGLVQAGGSLRLSCAASGRTFKSNAMRWYRQAPGKERELVATISRGGGSTYYADSVKGRFTISRDNAKNTVYLQMNSLKPEDTAVYYCAIGSNSYLRYHYTYPYDYWGQGTQVTVSS | high polyreactivity |

| Sequence | polyreactivity (PSR sort gate) |
| --- | --- |
| QVQLVESGGGLVQAGGSLRLSCAASGFIFVTYAMGWYRQAPGKETELVAAINNSGGTTYYADSVKGRFTISRDNAKNTVYLQMNSLKPEDTAVYFCNKRYGAETAHREFDYWGQGTQVTVSS | low polyreactivity |
| QVQLVESVGGLVQAGGSLRLSCAASGRTFARYAMGWERQAPGQERELVAAISRNTGSTYADSVKGRFTISRDNAKNTVSLQMNSLKPEDTAVYYFASSWRGQDPYYRYVGRDYWGQGTQVTVSS | high polyreactivity |
| QVQLVESGGGLVQAGGSLRLSCAASGFIFRGNAMGWYRQAPGKERELVAAISWSGGNTYYADSVKGRFTISRDNAKNTVYLQMNSLKPEDTAVYYCAAGATWSRQGSIRYNYWGQGTQVTVSS | high polyreactivity |
| QGQLVESGGGLVQAGGSLRLSCAASGFSYGFYAMGWYRQAPGKERELVASNSNGDSTNYADSVKGRFTISRDNAKNTVYLQMNSLKPEDTAVYYCATYGGYNPSPLYWGQGTQVTVSS | high polyreactivity |
| QDLLVESGGGLVQAGGSLRLSCAASGSIFDDYAMGWYRQAPGKERELVAAISSSGTSTYYADSVKGRFTISRDHAKNTVYLQMNSLIPEYTAVYYCAARSAILKSGYLKDYWGQGTQVTVSS | low polyreactivity |
| QVQLVESGGGLVQAGGILRLSCAASGFNFSSYAMAWYRQAPGKERELVAAISGSGGTTYYADSVKGRFTISRDNANNTVYVLMNSLKPEDTAVYYCATRRGLVITKYGYDYWGQGTQVTVSS | high polyreactivity |
| QVQLVESGGGLVQAGGRLRLRCAASGSTFSYYAMGWYRQAPGKERELVADISSGGTTNYADSVKGRFTISRDNAKNTVYLQMNSLKPEDTSVYYCNRRYSYYDGFDYWGQGTQVTVSS | low polyreactivity |
| QVQLVESGGGLVQAGGSLRLSCAASGFIFPYNTMGWYRQAPGTERELVAAIDSGGSTNYADSVKGRFTISRDNAKNTVDLQMNSLKPEDTAVYYCAADDPGSWWVGLLLTGVDDDYWGQGTQVTVSS | low polyreactivity |
| QVQLVESVGGLVQAGGSLRLSCAASGTLATYAMGWYRQAHGKERELVAAIRYSDGRTYYADSVKGRFTISRDNAKNTVYLLMNSLKPEDTAVYYCAASFRGRGKKLDYWGQGTQVTVSS | low polyreactivity |
| QVQLVESGGGLVQAGGSLRLRCAASGRTFLTNTLGWYRQAPGKERELVAAISSGGSTKYADSVKGRFTISRDNAKNTVYLQMNSLKTEDTAVYYCAATGWRYGYKYYYWGQGTQVTVSS | high polyreactivity |
| QVQLVESGGGLVQAGGSLRLSCAASGSTFYGYAMGWYRQAPGKERELVAVISWRGTSTYYADSVKGRFTISRDNAKNTVYLQMNSLKPEDTAVYYCAARGLWPYDYWGQGTQVTVSS | low polyreactivity |
| QVQLVESGGGLVQAGGSLRLSCAASGRNFYFYAMGWYRQAPGKEREFVATISSTGGSTYYADSVKGRFTISRDNAKNTVYLQMNSLKPEDTAVYYCAVRGWYPGFRYDYWGQGTQVTVSS | low polyreactivity |
| QVQHVESGGGLVQAGGSLRLSCAASGSIFIPNAMGWYRQAPGKERELVAAITSGGRTYYADSVKGRFTISRDNAKNTVYLQMNSLKPEDTAVYYCAARSGYRYVESEYWGQGTQVTVSS | high polyreactivity |
| QVQLVESGGGLVQAGGSLRLSCAASGSIFRRYAMGWYRQAPGKERELVAGITRGGSTYYADSVKGRFTISRDNAKNTVYLQMNSLKPEDTAVYYCNRAARYGEYDYWGQGTQVTVSS | high polyreactivity |
| QVQLVESGGGLVQAGGSLRLSCAASGNTFVTYAMGWYRQAPGKVRELVATISSSGGSTYYADSVKGRFTISRDNAKNTVYLQMNSLKPEDTAVYYCAKQAWAYALYTNFYSGDYGYWGQGTQVTVSS | low polyreactivity |
| QVQLVESGGGLVQAGGSLRLSCAASGSIFGWYAMGWYRQAPGKERELVAAISSSDGSTYYADSVKGRFTISRDNANNTVYFPMNSLKPEDTEVYYCATDYAFTYAQYDYWGQGTQVTVSS | low polyreactivity |
| QVQLVESGGGLVQAGGSLRLSCAASGFIFYGNTMGWYRQAPGKERELVAAISGSTGGTYYADSVKGRFTISRDNAKNTVYLQMNSLKPEDTAVYYCAAVVPWYASYSRYYYWGQGTQVTVSS | high polyreactivity |
| QVQLVESGGGLVQAGGSLRLSCAASGRTFRDNVMGWYRQAPGKERELVAAITWSSGSTHYADSVKGRFTISRDNAKNTVYLQMNSLKPEDTAVYYCAQKYGARTKYWEGWNVRYDYWGQGTQVTVSS | low polyreactivity |
| QVQLVESGGGLVQAGGSLRLSCEASGFTFGPYAMGWYRQAPGKEREWVAAIDDSGGNTYYADSVKGRFTISRDNAKNTVYLQRNSLKPEDTAVSYGNAFGPDYYHVYPAEDYWGQGTQVTVSS | low polyreactivity |
| QVQLVESGGGLVQAGGSLRLICAASGYIFKHNAMGWYRQAPGKERELVAAISWSGVSTYYADSVTGRFTISRDNAKNTVYLQMNSLKPEDTAVYYCNAPAIAPIYDYWGQGTQVTVSS | low polyreactivity |
| QVQLVESGGGLVQAGGSLRLSCAASGLNFSYYVMGWYRQAPGKERELVATITYSGGSTYYADSVKGRFTISRDNAKNTVYLQMNSLKPEDTAVYYFNADTGYVYSEYEYWGQGTQVTVSS | high polyreactivity |
